Data taken from publication PMC3519385 (Structure (London, England : 1993), 2012).
Positions count from the first letter of the chain named. Numbers in names are those of the source. Where “and” joins values, the source holds several entries; their conditions need not be identical. Equal values may be shown once.

T1: Gemin2 (UniProt O14893 1-280)
T1 sequence (looked up): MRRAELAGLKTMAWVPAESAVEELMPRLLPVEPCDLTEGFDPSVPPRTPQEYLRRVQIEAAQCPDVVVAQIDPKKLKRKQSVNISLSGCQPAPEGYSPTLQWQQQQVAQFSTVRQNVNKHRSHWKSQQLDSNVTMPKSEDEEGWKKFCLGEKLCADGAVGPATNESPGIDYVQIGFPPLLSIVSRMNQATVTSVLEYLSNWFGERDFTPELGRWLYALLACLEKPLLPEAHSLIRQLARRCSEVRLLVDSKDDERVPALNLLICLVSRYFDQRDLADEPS

B1: MBP-YG^252–294 T274I (domain or fragment, human, UniProt Q16637 252-294, looked up)
chain: DSLDDADALGSMLISWYMSGYHIGYYMGFRQNQKEGRCSHSLN
B2: MBP-YG^252–294 H273R (domain or fragment, human, UniProt Q16637 252-294, looked up)
chain: B1 chain with H22R, I23T
B3: MBP-YG^252–294 S262I (domain or fragment, human, UniProt Q16637 252-294, looked up)
chain: B1 chain with S11I, I23T
B4: MBP-YG^252–294 S262G (domain or fragment, human, UniProt Q16637 252-294, looked up)
chain: B1 chain with S11G, I23T
B5: MBP-YG^252–294 G279C (domain or fragment, human, UniProt Q16637 252-294, looked up)
chain: B1 chain with I23T, G28C
B6: MBP-YG^252–294 (domain or fragment, human, UniProt Q16637 252-294, looked up)
chain: B1 chain with I23T
B7: MBP-YG^252–294 G261A (domain or fragment, human, UniProt Q16637 252-294, looked up)
chain: B1 chain with G10A, I23T
B8: MBP-YG^252–294 S270A (domain or fragment, human, UniProt Q16637 252-294, looked up)
chain: B1 chain with S19A, I23T
B9: MBP-YG^252–294 N283A (domain or fragment, human, UniProt Q16637 252-294, looked up)
chain: B1 chain with I23T, N32A
B10: MBP-YG^252–294 G279A (domain or fragment, human, UniProt Q16637 252-294, looked up)
chain: B1 chain with I23T, G28A
B11: MBP-SMN^229–294 (domain or fragment, human, UniProt Q16637 229-294, looked up)
chain: LSCWLPPFPSGPPIIPPPPPICPDSLDDADALGSMLISWYMSGYHTGYYMGFRQNQKEGRCSHSLN
B12: MBP-YG^263–294 (domain or fragment, human, UniProt Q16637 263-294, looked up)
chain: MLISWYMSGYHTGYYMGFRQNQKEGRCSHSLN
B13: SMN Δexon5 (SMNΔ5) (natural protein, human, UniProt Q16637-2 1-262, looked up)
chain: MAMSSGGSGGGVPEQEDSVLFRRGTGQSDDSDIWDDTALIKAYDKAVASFKHALKNGDICETSGKPKTTPKRKPAKKNKSQKKNTAASLQQWKVGDKCSAIWSEDGCIYPATIASIDFKRETCVVVYTGYGNREEQNLSDLLSPICEVANNIEQNAQENENESQVSTDESENSRSPGNKSDNIKPKSAPWNSFLPPPPPMPGPRLGPGKIIPPPPPICPDSLDDADALGSMLISWYMSGYHTGYYMGFRQNQKEGRCSHSLN

Molecular target: the molecule itself
Assay: SEC-MALS

| Binder | stoichiometry N |
| --- | --- |
| B1 | 4 |
| B2 | 4 |
| B3 | ≥ 4 |
| B4 | 4 |
| B5 | ≥ 4 |
| B6 | 4 |

Molecular target: the molecule itself
Assay: SEC-MALS
Remark: another data set of the same source

| Binder | stoichiometry N |
| --- | --- |
| B7 | ≥ 4 |
| B8 | ≥ 4 |
| B9 | ≥ 4 |
| B10 | ≥ 4 |

Molecular target: the molecule itself
Assay: not given

| Binder | stoichiometry N |
| --- | --- |
| B11 | 4 and 8 |
| B12 | 2 |

Molecular target: T1, Gemin2
Assay: co-purification

| Binder | stoichiometry N |
| --- | --- |
| B13 | 1 |
